What is called IC50 is the concentration at which inhibition is half-maximal.

Chain of Recombinant human Bcl-xL with a 25 amino acid truncation of its C-terminus (human) (Q07817 1-208): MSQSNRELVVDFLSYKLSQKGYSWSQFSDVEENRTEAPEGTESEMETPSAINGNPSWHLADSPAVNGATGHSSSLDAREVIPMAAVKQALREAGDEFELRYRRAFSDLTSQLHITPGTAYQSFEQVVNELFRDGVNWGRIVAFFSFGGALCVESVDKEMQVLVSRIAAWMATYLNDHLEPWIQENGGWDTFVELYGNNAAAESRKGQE

The target of the first assay is mouse Mcl-1 with truncations of 151 amino acid residues at its N-terminus and 23 residues at its C-terminus (mouse) (UniProt P97287). The assay is described as follows: competition phage ELISA.
Chain of mouse Mcl-1 with truncations of 151 amino acid residues at its N-terminus and 23 residues at its C-terminus (mouse) (P97287 152-308): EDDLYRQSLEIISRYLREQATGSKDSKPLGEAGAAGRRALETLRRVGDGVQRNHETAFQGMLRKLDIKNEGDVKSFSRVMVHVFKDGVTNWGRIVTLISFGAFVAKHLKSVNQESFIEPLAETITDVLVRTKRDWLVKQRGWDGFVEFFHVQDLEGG
QEDIIRNIARHLAQVGDSMDRSIAPG [Bid BH3 P24A, phage-displayed]: the Fold/wt came to 1 fold and the IC50 came out at 90 nM.

With QEDIIRNIARHLAQVGDSMDRSIPPG [Bid BH3 wild type, phage-displayed], the Fold/wt was 1 fold and the half-inhibitory concentration (IC50) was determined as 99 nM.

Regarding QEDIIRNIARHLAQVGDSMDRSAPPG [Bid BH3 I23A, phage-displayed], the Fold/wt was found to be 1 fold and the IC50 is 142 nM.

In turn, QEDIIRNIARHLAQVGDSMDASIPPG [Bid BH3 R21A, phage-displayed] displayed a Fold/wt of 1 fold and an IC50 of 132 nM.

In the case of QEDIARNIARHLAQVGDSMDRSIPPG [Bid BH3 I5A, phage-displayed], the Fold/wt was 1 fold and the IC50 turned out to be 144 nM.

Turning to QEDIIRNIARHLAQVGDSMARSIPPG [Bid BH3 D20A, phage-displayed], the Fold/wt worked out at 1 fold and the IC50 came to 84 nM.

QADIIRNIARHLAQVGDSMDRSIPPG [Bid BH3 E2A, phage-displayed] returned a Fold/wt of 1 fold and an IC50 of 140 nM.

PASTMGQVGRQLAIIGDDINRRYDSE [Bak BH3 S2A, phage-displayed] displayed a Fold/wt of 1 fold and an IC50 of 16 nM.

On to PSSTAGQVGRQLAIIGDDINRRYDSE [Bak BH3 M5A, phage-displayed], for which the Fold/wt turned out to be 1 fold and the half-inhibitory concentration (IC50) came to 18 nM.

As to QEDIIRNIAAHLAQVGDSMDRSIPPG [Bid BH3 R10A, phage-displayed], the Fold/wt is 1 fold and the IC50 is 130 nM.

Consider PSSTMGQVGRQLAAIGDDINRRYDSE [Bak BH3 I14A, phage-displayed], for which the Fold/wt stood at 1 fold and the IC50 was 14 nM.

As to PSSAMGQVGRQLAIIGDDINRRYDSE [Bak BH3 T4A, phage-displayed], the Fold/wt amounted to 1 fold and the 50% inhibitory concentration (IC50) was 14 nM.

The molecule QEDIIRNIARHLAAVGDSMDRSIPPG [Bid BH3 Q14A, phage-displayed] gave a Fold/wt of 1 fold and an IC50 of 124 nM.

Consider QEDAIRNIARHLAQVGDSMDRSIPPG [Bid BH3 I4A, phage-displayed], for which the Fold/wt turned out to be 1 fold and the IC50 was 134 nM.

In the case of PSSTMGQVGAQLAIIGDDINRRYDSE [Bak BH3 R10A, phage-displayed], the Fold/wt was determined as 1 fold and the IC50 came out at 29 nM.

The molecule PSSTMGQVGRALAIIGDDINRRYDSE [Bak BH3 Q11A, phage-displayed] registered a Fold/wt of 1 fold and an IC50 of 16 nM.

PSATMGQVGRQLAIIGDDINRRYDSE [Bak BH3 S3A, phage-displayed] had a Fold/wt of 1 fold and an IC50 of 17 nM.

QEDIIRNIARALAQVGDSMDRSIPPG [Bid BH3 H11A, phage-displayed] displayed a Fold/wt of 1 fold and an IC50 of 89 nM.

With QEAIIRNIARHLAQVGDSMDRSIPPG [Bid BH3 D3A, phage-displayed], the Fold/wt was determined as 1 fold and the half-inhibitory concentration (IC50) is 96 nM.

PSSTMGQVGRQLAIIGDAINRRYDSE [Bak BH3 D18A, phage-displayed]: the Fold/wt worked out at 1 fold and the IC50 stood at 14 nM.

As to QEDIIRNIARHLAQVGDAMDRSIPPG [Bid BH3 S18A, phage-displayed], the Fold/wt was found to be 1 fold and the IC50 came out at 104 nM.

QEDIIANIARHLAQVGDSMDRSIPPG [Bid BH3 R6A, phage-displayed]: the Fold/wt came to 1 fold and the IC50 is 88 nM.

As for QEDIIRNIARHLAQVGDSMDRAIPPG [Bid BH3 S22A, phage-displayed], the Fold/wt was 1 fold and the IC50 turned out to be 128 nM.

As for AEDIIRNIARHLAQVGDSMDRSIPPG [Bid BH3 Q1A, phage-displayed], the Fold/wt turned out to be 1 fold and the IC50 stood at 79 nM.

Consider PSSTMEQVGRQLAIIGDDINRRYDSE [Bak BH3 G6E, phage-displayed], for which the Fold/wt came to 1 fold and the concentration for half-maximal inhibition (IC50) was 11 nM.

In the case of ASSTMGQVGRQLAIIGDDINRRYDSE [Bak BH3 P1A, phage-displayed], the Fold/wt is 1 fold and the IC50 is 18 nM.

QEDIIRNIARHLAQVGDSMDRSIPPE [Bid BH3 G26E, phage-displayed] registered a Fold/wt of 1 fold and an IC50 of 94 nM.

Take PSSTMGAVGRQLAIIGDDINRRYDSE [Bak BH3 Q7A, phage-displayed]: the Fold/wt stood at 1 fold and the IC50 came out at 20 nM.

The molecule QEDIIRAIARHLAQVGDSMDRSIPPG [Bid BH3 N7A, phage-displayed] gave a Fold/wt of 1 fold and an IC50 of 54 nM.

QEDIIRNIARHLAQVGDSMDRSIPAG [Bid BH3 P25A, phage-displayed] came in with a Fold/wt of 1 fold and an IC50 of 87 nM.

A further assay concerns the target Recombinant human Bcl-xL with a 25 amino acid truncation of its C-terminus (human) (UniProt Q07817). Nature of the assay: competition phage ELISA. In general terms: An ELISA detects its analyte on a solid surface through an enzyme-linked reagent.
Consider QEDIIRNIARHLAQVGDSMDRSIAPG [Bid BH3 P24A, phage-displayed], for which the Fold/wt was 1 fold and the IC50 came out at 14 nM.

In the case of QEDIIRNIARHLAQVGDSMDRSIPPG [Bid BH3 wild type, phage-displayed], the Fold/wt turned out to be 1 fold and the 50% inhibitory concentration (IC50) was 11 nM.

For QEDIIRNIARHLAQVGDSMDRSAPPG [Bid BH3 I23A, phage-displayed], the Fold/wt was 1 fold and the IC50 was 15 nM.

NLWAAQRYGRELRRMSDEFVDSAKKG [Bad BH3 F23A, phage-displayed]: the Fold/wt was 2 fold and the IC50 came out at 4 nM.

For QEDIIRNIARHLAQVGDSMDASIPPG [Bid BH3 R21A, phage-displayed], the Fold/wt is 3 fold and the IC50 came to 32 nM.

As to QEDIARNIARHLAQVGDSMDRSIPPG [Bid BH3 I5A, phage-displayed], the Fold/wt stood at 2 fold and the IC50 amounted to 21 nM.

As for QEDIIRNIARHLAQVGDSMARSIPPG [Bid BH3 D20A, phage-displayed], the Fold/wt was 1 fold and the IC50 amounted to 13 nM.

For QADIIRNIARHLAQVGDSMDRSIPPG [Bid BH3 E2A, phage-displayed], the Fold/wt turned out to be 1 fold and the IC50 was determined as 12 nM.

As to PASTMGQVGRQLAIIGDDINRRYDSE [Bak BH3 S2A, phage-displayed], the Fold/wt was 1 fold and the IC50 was 28 nM.

Take NLWAAQRYGRELRRMSDEFVDSFKKE [Bad BH3 G26E, phage-displayed]: the Fold/wt was determined as 1 fold and the IC50 came out at 3 nM.

For the molecule NLWAAQRYGRELRRMSDEFVDSFAKG [Bad BH3 K24A, phage-displayed], the Fold/wt worked out at 2 fold and the IC50 stood at 4 nM.

As for NLWAAQRYGRELRRMSDEFVASFKKG [Bad BH3 D21A, phage-displayed], the Fold/wt was 1 fold and the IC50 was 2 nM.

In the case of PSSTAGQVGRQLAIIGDDINRRYDSE [Bak BH3 M5A, phage-displayed], the Fold/wt was under 1 fold and the IC50 turned out to be 15 nM.

Regarding QEDIIRNIAAHLAQVGDSMDRSIPPG [Bid BH3 R10A, phage-displayed], the Fold/wt is 2 fold and the IC50 stood at 26 nM.

Consider PSSTMGQVGRQLAAIGDDINRRYDSE [Bak BH3 I14A, phage-displayed], for which the Fold/wt turned out to be 1 fold and the IC50 came to 66 nM.

Turning to PSSAMGQVGRQLAIIGDDINRRYDSE [Bak BH3 T4A, phage-displayed], the Fold/wt came out at 1 fold and the half-maximal inhibitory concentration (IC50) is 28 nM.

Take QEDIIRNIARHLAAVGDSMDRSIPPG [Bid BH3 Q14A, phage-displayed]: the Fold/wt was 1 fold and the IC50 worked out at 13 nM.

Take QEDAIRNIARHLAQVGDSMDRSIPPG [Bid BH3 I4A, phage-displayed]: the Fold/wt came to 3 fold and the IC50 is 31 nM.

Turning to PSSTMGQVGAQLAIIGDDINRRYDSE [Bak BH3 R10A, phage-displayed], the Fold/wt worked out at 3 fold and the IC50 was determined as 163 nM.

PSSTMGQVGRALAIIGDDINRRYDSE [Bak BH3 Q11A, phage-displayed]: the Fold/wt worked out at 5 fold and the IC50 is 238 nM.

Take PSATMGQVGRQLAIIGDDINRRYDSE [Bak BH3 S3A, phage-displayed]: the Fold/wt worked out at 1 fold and the IC50 was found to be 25 nM.

For the molecule QEDIIRNIARALAQVGDSMDRSIPPG [Bid BH3 H11A, phage-displayed], the Fold/wt was determined as 1 fold and the 50% inhibitory concentration (IC50) came out at 9 nM.

For QEAIIRNIARHLAQVGDSMDRSIPPG [Bid BH3 D3A, phage-displayed], the Fold/wt turned out to be 1 fold and the IC50 came to 15 nM.

For the molecule PSSTMGQVGRQLAIIGDAINRRYDSE [Bak BH3 D18A, phage-displayed], the Fold/wt was determined as 1 fold and the IC50 was 33 nM.

Turning to QEDIIRNIARHLAQVGDAMDRSIPPG [Bid BH3 S18A, phage-displayed], the Fold/wt came to 1 fold and the IC50 came out at 16 nM.

Regarding QEDIIANIARHLAQVGDSMDRSIPPG [Bid BH3 R6A, phage-displayed], the Fold/wt was determined as 3 fold and the IC50 came to 31 nM.

For QEDIIRNIARHLAQVGDSMDRAIPPG [Bid BH3 S22A, phage-displayed], the Fold/wt was determined as 1 fold and the IC50 is 13 nM.

Regarding NLWAAQRYGRELRRMSDEFVDSFKAG [Bad BH3 K25A, phage-displayed], the Fold/wt was determined as 2 fold and the IC50 was found to be 4 nM.

Consider NLWAAQRYGRELRRMSDEFADSFKKG [Bad BH3 V20A, phage-displayed], for which the Fold/wt came to 1 fold and the IC50 was found to be 3 nM.

Turning to NLWAAQRYGRELRRMSDEFVDAFKKG [Bad BH3 S22A, phage-displayed], the Fold/wt is 2 fold and the IC50 is 4 nM.

On to AEDIIRNIARHLAQVGDSMDRSIPPG [Bid BH3 Q1A, phage-displayed], for which the Fold/wt worked out at 2 fold and the IC50 was found to be 24 nM.

Consider PSSTMEQVGRQLAIIGDDINRRYDSE [Bak BH3 G6E, phage-displayed], for which the Fold/wt is under 1 fold and the IC50 came out at 14 nM.

ASSTMGQVGRQLAIIGDDINRRYDSE [Bak BH3 P1A, phage-displayed]: the Fold/wt was found to be 1 fold and the IC50 stood at 31 nM.

On to QEDIIRNIARHLAQVGDSMDRSIPPE [Bid BH3 G26E, phage-displayed], for which the Fold/wt stood at 2 fold and the IC50 came out at 17 nM.

On to PSSTMGAVGRQLAIIGDDINRRYDSE [Bak BH3 Q7A, phage-displayed], for which the Fold/wt stood at 1 fold and the IC50 was 48 nM.

Consider QEDIIRAIARHLAQVGDSMDRSIPPG [Bid BH3 N7A, phage-displayed], for which the Fold/wt was determined as 1 fold and the IC50 amounted to 10 nM.

Take QEDIIRNIARHLAQVGDSMDRSIPAG [Bid BH3 P25A, phage-displayed]: the Fold/wt came out at 1 fold and the IC50 came out at 16 nM.

The values are drawn from patent publication US20090048164A1.
